# Measured values reported in the supplement of paper PMC9170038.
# Tested on: MS2 coat protein
# Assay: apparent KD of MS2 coat protein; designed switch direction (-1 OFF switch, 1 ON switch): -1; higher = weaker reporter binding
# Procedure, shortened: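 An oligonucleotide input, 200 uM small-molecule ligand, or no input was present during titration of SNAP-549-labelled MS2 coat protein, which was doubled from 0.7 or 1.5 nM to 3 µM. Designed RNA switches had been transcribed on Illumina chips by stalled E. coli RNA polymerase. Apparent KD per design is the median over clusters of curves fitted to normalised cluster fluorescence.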
# [1] = Eterna round: R95, input ligand: microRNA oligo, concentration not stated
# [2] = Eterna round: R95, input ligand: FMN 200 uM
# [3] = Eterna round: R95, input ligand: none
# [4] = input ligand: microRNA oligo, concentration not stated
Sequence,apparent KD of MS2 coat protein (input ligand: FMN 200 uM),apparent KD of MS2 coat protein (input ligand: none),apparent KD of MS2 coat protein [1],apparent KD of MS2 coat protein [2],apparent KD of MS2 coat protein [3],apparent KD of MS2 coat protein [4]
"UCUUUCAUUGUGAGGAUAUGCCCAAAUAAAAGCGGGCAGAAGGCACAUGAGGAUCACCCAUGUCCUGCGGUUAU [salish99_bmx4_r4_150] (Eterna round: R97, puzzle: Brourd's mod of Exclusion 4)",357 nM,56.9 nM,,,,
"GCAUGUCAGUAGGAUAUGCAGCACUUGAUACCUGCAGAAGGACUGACAUGAGGAUCACCCAUGUCUCGGGUGCU [EX6 A.10] (Eterna round: R97, puzzle: Exclusion 6)",16.8 nM,149 nM,,,,
AUUUAGAGAGGAUAUAUAAAGUGAAACAUGAGGAUCACCCAUGUAAUUUUAUGGAUGUAAAUAGAAGGCUCAUUUU [Mat - Exclusion 5 - JL mod - D3] (puzzle: Exclusion 5),,,36.5 nM,,,
"CAUGAUCUUCGGAUCAUGGACAUGAGGAUCACCCAUGUCACGAGCAGAUCCUCAUGCAAGCUUUUUGCUCGUCUUAU [Sensor v3 - Turn-off variant 1 - 35] (puzzle: Sensor v3, turn-off variant 1)",,,8.73 nM,62.9 nM,85.2 nM,
"AAAUCGGUAGAGGAUAUUGUACAGGAAACGGUGCAAGAAGGUUGCACAUGAGGAUCACCCAUGUUUAAUUGCGA [EX6 #50] (Eterna round: R97, puzzle: Exclusion 6)",33.9 nM,36.2 nM,,,,
AAAAGAGUAGGAUAUCUGACGCGAAACAUGAGGAUCACCCAUGUAGGGCGGUCCUGCUUAAGAGAAGGGCUCUAAU [Arorxebile] (puzzle: Exclusion 5),,,119 nM,155 nM,164 nM,
"GGACACUGAGGAUAUACAAUUCAGGUCCUCCUGUAGAGUAUACAUGAGGAUCACCCAUGUAGAAGGCAGACCAA [Aronberiat] (Eterna round: R97, puzzle: Exclusion 2)",344 nM,44.9 nM,,,,
"ACCAAGCUAUGCACGUCUGACAUGAGGAUCACCCAUGUAGCCGGUCUCGGAAGGAGACAGGCUCCAGGUGGCUCAGA [Eternabot (Original) Solution 37] (Eterna round: R97, puzzle: Sensor, turn-off variant 1)",683 nM,667 nM,,,,
"UGUGUGUGAGGAUAUACAAUGCGCGCGCGAAAGUGUGUGUUACAUGAGGAUCACCCAUGUAGAAGGCGCGCGCG [-31, -27.8 kcal A 24%, 6,6bis] (Eterna round: R97, puzzle: Exclusion 2)",15.7 nM,17 nM,,,,
UAUUUGUCAGGAUAUGAGUCGUAGAACAAUAGUACUACGUCUCAGAAGGGACAUGAGGAUCACCCAUGUGCCUC [Fiskers Ex 4 Super Stable 44 mod 29] (puzzle: Exclusion 4),,,25.5 nM,,,
UAUAAGGUAGGAUAUACGAAUAAAUAGGGUAGAAUAAUAACACAUGAGGAUCACCCAUGUAGAAGGACCAAGAU [Mat - Exclusion 2 - Mod of my Tesla design - D29] (puzzle: Exclusion 2),,,20.5 nM,44.5 nM,24.8 nM,
"UCGCUCCGUGUAGGAUAUCGUUGUAUUAUGCGGCGAGAAGGACAUGAGGAUCACCCAUGUAUGUUAUUAUCACGCGUGGCGCAA [Design 66] (Eterna round: R96, puzzle: Exclusion NG 1)",14.8 nM,18.7 nM,,,,14.8 nM
GAGAAGGUAGGAUAUACGAAGAAAAAGGGUAGAAUAAUAACACAUGAGGAUCACCCAUGUAGAAGGACCAAGAG [Mat - Exclusion 2 - Mod of my Tesla design - D19] (puzzle: Exclusion 2),,,16.7 nM,44.3 nM,20.4 nM,
"AGCGAAGAGACAGGAUAUGAGAAUAGAUAGAACUCAGAAGGGUCACAUGAGGAUCACCCAUGUAAAGUCUUGAGGCUGCGUGGU [Prohibition 9 - Jieux - Exclusion NG 1] (Eterna round: R96, puzzle: Exclusion NG 1)",141 nM,71.9 nM,,,,50.7 nM
GGGCUUCAAGUGAGGAUAUCUACGCAGUUGAAGCGAGAGAAGGCACAUGAGGAUCACCCAUGUAUAGAAGAAGA [Rausmausis] (puzzle: Brourd's mod of Exclusion 4),,,26.5 nM,116 nM,29.1 nM,
"UCGUUCCGUGUAGGAUAUUGGCCUUCCUCGGGCCGAGAAGGACAUGAGGAUCACCCAUGUAUGCUAUUAUCGCGCGUGGCGCAC [Design 96] (Eterna round: R96, puzzle: Exclusion NG 1)",141 nM,33 nM,,,,24.5 nM
"GUCCCACAUGAGGAUCACCCAUGUGAGGAUAUGGUUUCGCUGGCCGUAGCCAGUGGAACCAGAAGGCGCGUGAU [Mat - Exclusion 1 - JL Mod - D17] (Eterna round: R97, puzzle: Exclusion 1)",75 nM,74.7 nM,,,,

Sequence,apparent KD of MS2 coat protein (input ligand: FMN 200 uM),apparent KD of MS2 coat protein (input ligand: none),apparent KD of MS2 coat protein [1],apparent KD of MS2 coat protein [2],apparent KD of MS2 coat protein [3],apparent KD of MS2 coat protein [4]
AAAGAGCGAGGAUAUACAUGAGGAUCACCCAUGUGAAGAUGCAUGGUCUGAACGUCUGGUAGAAGGCGUAUGAA [Rebierce] (puzzle: Exclusion 3),,,119 nM,,,
"AGAGUGCUGCGAGGAUAUACAUGAGGAUCACCCAUGUUUUCGUGUGAGGCAAAGCCUCACACGAUGUAGAAGGCGCAGUACUCA [Mat - Exclusion NG 2 - Mod of JL - D36] (Eterna round: R96, puzzle: Exclusion NG 2)",13.2 nM,14.6 nM,,,,9.73 nM
"AGGUGCUUCUGGAGACAUGAGGAUCACCCAUGUUGAGUUAGCGAGGAUAUCGGUAACCAUUGUUAUGAGAAGGCGCAAACCAGA [Ex NG3 #40] (Eterna round: R96, puzzle: Exclusion NG 3)",22.9 nM,27.8 nM,,,,10.5 nM
"UACAUGAGGAUCACCCAUGUUUUGUCGUGUAUGGUAUUUAUCUAGGAUAUCAAGUUGUUUAUUUAUGAGAAGGAGAAUAUUAAU [JMF's solution 27] (Eterna round: R96, puzzle: Exclusion NG 3)",,,,,,28.8 nM
"ACAUGUCAUCGAGGAUAUUGUACACAUGAGGAUCACCCAUGUACUCGGUUGCUCUAGCAUGAGUUCGAGAAGGCGAUGUACAUU [Ex NG2 #81] (Eterna round: R96, puzzle: Exclusion NG 2)",178 nM,38.4 nM,,,,28.9 nM
"UAUUAGCAAGCAAAUGGGUACAUGAGGAUCACCCAUGUGCUCGUCUUAUAAGGUACUGUGACGAAAGUCCCGGUACC [mod--Eli6] (Eterna round: R97, puzzle: Sensor, turn-off variant 1)",28.9 nM,21.9 nM,,,,
UCGGCGCGAGGAUAUACGUUUGCUUUUUUUUGUCUUUGUGUACAUGAGGAUCACCCAUGUAGAAGGCGCGCCGC [Apr-15 SS2-22] (puzzle: Exclusion 2),,,18.5 nM,,,
"GGGCCGGCCGGAGGAUAUGCGGCUUGGUUGGUCGGUGGGCCGGCCGGGACAUGAGGAUCACCCAUGUAGAAGGCUGGUUGGUUC [less GC, MS2 in another position, A 14%] (Eterna round: R96, puzzle: Exclusion NG 2)",58.2 nM,60.7 nM,,,,42.8 nM
"UUUUUAUAUGAAGGAUAUACUUAACAUGAGGAUCACCCAUGUGGUGUUGUGAGUGAGUGAGUUUAGUAGAAGGUCAAUUAUUUU [JMF's solution 6] (Eterna round: R96, puzzle: Exclusion NG 2)",915 nM,261 nM,,,,246 nM
"GCAAAAUAUCAGGAUAUGACUAAUUGCGUUAAGUCAGAAGGGAUAACAUGAGGAUCACCCAUGUGAUAUAGUGU [JR_Ex6_Sub030] (Eterna round: R97, puzzle: Exclusion 6)",237 nM,169 nM,,,,
"UGUUGUUACGCAGGAUAUGAGGAUCACCCAUAGAAGGAUAUCGAAAGAGAAGGUCUGAGGAUUACCCAGAAGGGCGGGUUAACA [pwkr exNG2 2xF5 2xFMN.1] (Eterna round: R96, puzzle: Exclusion NG 2)",714 nM,139 nM,,,,153 nM
GAAAAGGUAGGAUAUACGAAAAAAAAGGAUAGAAAAAAAACACAUGAGGAUCACCCAUGUAGAAGGACCAAAAG [salish99_ex2_r3_066] (puzzle: Exclusion 2),,,25.5 nM,35.2 nM,23.3 nM,
"ACGAUGACCGAAAGAUGUCAAAAGACAUGAGGAUCACCCAUGUAGGAUAUGGCUACGAAAAGUAGUCAGAAGGACAUGUCAUCA [Omei Exc(NG) 3 A] (Eterna round: R96, puzzle: Exclusion NG 3)",15.1 nM,14.8 nM,,,,12.3 nM
"ACAUGAGGAUCACCCAUGUACAGGGUUUAGUUUCAUCGUUUGAAGGAUAUACACCGUUAGUUGUCGUAGAAGGUCACAGAUUGG [JR_ExcNG3_Sub009] (Eterna round: R96, puzzle: Exclusion NG 3)",153 nM,155 nM,,,,68.2 nM
UAAAACUGAGGAUAUACAUGAGGAUCACCCAUGUCAAUUGACAGCGGCGUGGCAAAAGGUAGAAGGCAGGCGGU [Lerete] (puzzle: Exclusion 3),,,176 nM,43 nM,161 nM,
UGAAUGUGAGGAUAUGGUGAGUAGUGCCUGAGCGCUGCUCACCAGAAGGCACAUGAGGAUCACCCAUGUACUUG [JL-ex4-2.07 denovo] (puzzle: Exclusion 4),,,49.4 nM,,,
